The chains are these.
B1: EVA3_RHISA (other)
single chain: LVSTIESRTSGDGADNFDVVSCNKNCTSGQNECPEGCFCGLLGQNKKGHCYKIIGNLSGEPPVVRR
notes: also called Evasin-3; evasin 3
B2: CCL13_HUMAN (ligand)
chain: not shown
B3: CCL3L1_HUMAN (ligand)
chain: APLAADTPTACCFSYTSRQIPQNFIADYFETSSQCSKPSVIFLTKRGRQVCADPSEEWVQKYVSDLELSA
B4: CCL14_HUMAN (ligand)
chain: TESSSRGPYHPSECCFTYTTYKIPRQRIMDYYETNSQCSKPGIVFITKRGHSVCTNPSDKWVQDYIKDMKEN
B5: P983_AMBCA (other)
chain: EDTGTEDDFDYGNTGCPFPVLGNYKSNMTKPVGCKNKCGSGYEVLNDTTPCYVIDQKVFNNMVPLRQYSKCPLGFCENGECKPNDQAEDCYKGREEQK
B6: P1156_IXORI (other)
chain: ADDDNELFTVQYCGMNCTKDEGGTWTGCTGKKEGCKCYHESGKNYGLCLSTEYTDFSQYGNPSDSEIEAAKPKRSDTLSH

Where a chain is given by its changes, count along the chain named. Where two headings read alike, the source gives them in different places.

Assay [1] deals with T1, CXCL5_HUMAN (human, UniProt P42830 41-114).
T1 sequence: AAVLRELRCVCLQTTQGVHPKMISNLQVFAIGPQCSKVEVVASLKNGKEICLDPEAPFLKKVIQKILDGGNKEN
Description: BLI [Cont.].

For assay [2], the target named is T2, CXCL2_HUMAN (human, UniProt P19875 35-107).
T2 sequence: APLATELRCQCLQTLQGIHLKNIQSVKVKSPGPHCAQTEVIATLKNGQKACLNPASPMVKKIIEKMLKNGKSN
Put plainly: BLI [Cont.].

The target of another assay is T3, CXCL7_HUMAN (human, UniProt P02775 59-128).
T3 sequence: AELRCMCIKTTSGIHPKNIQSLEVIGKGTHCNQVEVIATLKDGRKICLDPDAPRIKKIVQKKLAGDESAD
Description: BLI [Cont.].

The next assay has as its target T4, CXCL4_HUMAN (human, UniProt P02776 32-101).
T4 sequence: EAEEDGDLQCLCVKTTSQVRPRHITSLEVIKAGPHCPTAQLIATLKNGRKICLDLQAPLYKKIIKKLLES
Description: BLI [Cont.].

Assay [3] has as its target T5, CXCL6_HUMAN (human, UniProt P80162 38-114).
T5 sequence: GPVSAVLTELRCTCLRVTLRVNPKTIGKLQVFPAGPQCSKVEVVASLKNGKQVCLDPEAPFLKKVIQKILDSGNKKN
Description: BLI [Cont.].

For another assay, the target named is CXCL12_HUMAN (human, UniProt P48061 22-89). Put plainly: BLI.
A further assay concerns the target T6, CXCL10_HUMAN (human, UniProt P02778 22-98).
T6 sequence: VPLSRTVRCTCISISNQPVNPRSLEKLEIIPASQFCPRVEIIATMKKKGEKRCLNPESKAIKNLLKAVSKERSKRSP
Put plainly: BLI. (In BLI a coated tip is dipped into the sample, and binding shifts an interference pattern.)

The next assay addresses T7, CXCL9_HUMAN (human, UniProt Q07325 23-125).
T7 sequence: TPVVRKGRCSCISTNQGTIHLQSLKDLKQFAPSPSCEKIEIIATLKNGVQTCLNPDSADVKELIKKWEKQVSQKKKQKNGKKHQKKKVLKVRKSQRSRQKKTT
Description: BLI.

Another assay concerns the target T8, CXCL14_HUMAN (human, UniProt O95715 35-111).
T8 sequence: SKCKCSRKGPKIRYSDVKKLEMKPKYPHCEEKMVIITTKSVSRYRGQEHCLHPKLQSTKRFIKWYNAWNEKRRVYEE
Description: BLI.

In the next assay the target is T9, CXCL11_HUMAN (human, UniProt O14625 22-94).
T9 sequence: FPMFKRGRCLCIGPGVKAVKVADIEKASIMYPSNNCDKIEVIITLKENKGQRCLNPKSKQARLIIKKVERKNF
Description: BLI.

Another assay concerns the target T10, CXCL13_HUMAN (human, UniProt O43927 23-109).
T10 sequence: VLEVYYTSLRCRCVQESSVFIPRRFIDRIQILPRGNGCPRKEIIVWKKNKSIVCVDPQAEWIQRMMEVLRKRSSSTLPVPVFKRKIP
Put plainly: BLI.

A further assay addresses T11, P1180_AMBTR (Amblyomma triste, UniProt A0A023G6B6 26-116).
T11 sequence: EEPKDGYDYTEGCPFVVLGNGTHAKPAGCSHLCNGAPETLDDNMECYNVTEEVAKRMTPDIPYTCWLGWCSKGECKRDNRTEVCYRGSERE
Description: BLI.

The target of the assay “P983_AMBCA” is B5. Put plainly: BLI.
For a further assay, the target named is T12, P467_RHIPU (Rhipicephalus pulchellus, UniProt L7M8Z8 22-127).
T12 sequence: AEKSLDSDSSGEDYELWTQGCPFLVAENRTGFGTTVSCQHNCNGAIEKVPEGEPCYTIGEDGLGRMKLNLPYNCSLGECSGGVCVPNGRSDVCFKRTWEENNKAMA
Description: BLI.

A further assay concerns the target T13, P985_AMBPA (Amblyomma parvum, UniProt A0A023FT45 25-132).
T13 sequence: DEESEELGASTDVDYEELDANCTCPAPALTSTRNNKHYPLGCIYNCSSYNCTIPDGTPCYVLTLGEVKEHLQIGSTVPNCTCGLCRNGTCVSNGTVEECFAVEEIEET
Put plainly: BLI.

The next assay has as its target T14, P546_AMBCA (Amblyomma cajennense, UniProt A0A023FBW7 22-118).
T14 sequence: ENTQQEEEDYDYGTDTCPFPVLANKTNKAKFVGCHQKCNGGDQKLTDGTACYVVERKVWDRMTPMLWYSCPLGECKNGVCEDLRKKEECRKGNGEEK
Description: BLI.

The next assay concerns the target T15, P991_AMBCA (Amblyomma cajennense, UniProt A0A023FFD0 29-136).
T15 sequence: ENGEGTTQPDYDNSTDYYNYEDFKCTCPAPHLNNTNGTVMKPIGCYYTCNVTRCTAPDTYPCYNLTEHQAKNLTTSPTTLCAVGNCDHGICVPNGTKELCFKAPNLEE
Put plainly: BLI.

In a further assay the target is T16, P974_AMBCA (Amblyomma cajennense, UniProt A0A023FDY8 22-118).
T16 sequence: T14 sequence with E8Q, S69E, E88D
Description: BLI.

Assay [4] deals with T17, P1243_AMBAM (Amblyomma americanum, UniProt A0A0C9S461 26-123).
T17 sequence: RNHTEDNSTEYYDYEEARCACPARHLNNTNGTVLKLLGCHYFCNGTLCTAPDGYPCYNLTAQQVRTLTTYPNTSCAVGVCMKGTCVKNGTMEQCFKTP
Put plainly: BLI.

The target of the next assay is T18, P1182_AMBMA (Amblyomma maculatum, UniProt G3MJ83 27-115).
T18 sequence: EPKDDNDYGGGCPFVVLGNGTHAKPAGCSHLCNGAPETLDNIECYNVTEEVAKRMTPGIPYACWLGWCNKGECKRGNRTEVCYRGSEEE
Put plainly: BLI.

The target of the next assay is T19, P1181_AMBMA (Amblyomma maculatum, UniProt G3MIX6 26-115).
T19 sequence: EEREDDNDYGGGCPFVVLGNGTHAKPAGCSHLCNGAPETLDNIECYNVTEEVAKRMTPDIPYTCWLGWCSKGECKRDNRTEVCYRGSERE
Put plainly: BLI.

A further assay concerns the target T20, P1183_AMBTR (Amblyomma triste, UniProt A0A023G9N9 26-115).
T20 sequence: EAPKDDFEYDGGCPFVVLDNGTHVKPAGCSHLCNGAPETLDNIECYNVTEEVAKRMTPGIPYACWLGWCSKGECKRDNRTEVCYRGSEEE
Description: BLI.

The next assay addresses BK1.1FITC. Put plainly: fluorescence polarisation, 50 nM peptide. A general note: Fluorescence polarisation rises when a labelled molecule tumbles more slowly, as on binding a larger partner.
A further assay deals with T21, P672_RHIPU (Rhipicephalus pulchellus, UniProt L7MC74 22-125).
T21 sequence: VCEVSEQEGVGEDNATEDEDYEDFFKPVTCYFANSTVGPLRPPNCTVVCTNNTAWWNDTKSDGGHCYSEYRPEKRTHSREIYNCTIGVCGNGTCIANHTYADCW
Description: BLI.

Assay [5] addresses T17, P1243_AMBAM. Description: BLI. The source holds these as a separate data set.
The next assay deals with CCL2_HUMAN (human, UniProt P13500 24-99). Put plainly: cell-based or functional assay.
For assay [6], the target named is T1, CXCL5_HUMAN. Put plainly: BLI.
Assay [7] concerns the target T2, CXCL2_HUMAN. Description: BLI.
For the next assay, the target named is T22, CXCL1_HUMAN (human, UniProt P09341 35-107).
T22 sequence: T2 sequence with P2S, L3V, L20P, K27N, Q48R, M58I, K68N, N69S, G70D
Description: BLI.

The target of a further assay is T23, CXCL8_HUMAN (human, UniProt P10145 28-99).
T23 sequence: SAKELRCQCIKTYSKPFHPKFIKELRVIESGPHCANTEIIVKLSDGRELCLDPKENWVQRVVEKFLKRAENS
Description: BLI.

The target in another assay is T24, CXCL3_HUMAN (human, UniProt P19876 35-107).
T24 sequence: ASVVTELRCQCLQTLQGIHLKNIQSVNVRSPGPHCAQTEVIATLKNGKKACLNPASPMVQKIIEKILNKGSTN
Description: BLI.

The target of assay [8] is T5, CXCL6_HUMAN. Description: BLI.

Sequence of CXCL12_HUMAN (P48061 22-89 limits assumed): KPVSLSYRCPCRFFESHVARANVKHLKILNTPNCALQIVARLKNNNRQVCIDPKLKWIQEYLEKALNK
Sequence of CCL2_HUMAN (P13500 24-99 limits assumed): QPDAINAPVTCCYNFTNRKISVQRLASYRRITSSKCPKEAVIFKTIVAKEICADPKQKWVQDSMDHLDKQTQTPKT

In general, Kd refers to the constant that tells how readily two partners part at equilibrium. In the case of B1, the Kd with CXCL5_HUMAN [1] was 24.9 nM; with CXCL2_HUMAN [2], 7.49 nM; in the assay with CXCL6_HUMAN [3] it was 1.03 nM. Also, the binding result with CXCL7_HUMAN, with CXCL4_HUMAN, in the assay with CXCL12_HUMAN, in the assay with CXCL10_HUMAN, with CXCL9_HUMAN and with CXCL14_HUMAN was “no binding (tested: 300 nM)” each time. The binding result with CXCL11_HUMAN and with CXCL13_HUMAN was “no binding (tested: 300 nM)” each time.
With B2, the Kd with P1180_AMBTR was determined as 9 nM; in the assay with P983_AMBCA, 17 nM; in the assay with P467_RHIPU, 2.56 nM; in the assay with P985_AMBPA, 89 nM; with P546_AMBCA it was 13 nM; in the assay with P991_AMBCA it was 0.419 nM. In addition, the Kd with P974_AMBCA was 22.9 nM; in the assay with P1243_AMBAM [4] it was 0.788 nM; with P1182_AMBMA, 56 nM; with P1181_AMBMA it was 19 nM; with P1183_AMBTR it was 5.7 nM. In addition, the binding result with BK1.1FITC is recorded as “no binding (tested: 1 µM)”.
As for B3, the dissociation constant Kd with P1180_AMBTR is 2.2 nM; with P983_AMBCA it was 2.1 nM; with P672_RHIPU, 2.7 nM; with P467_RHIPU it was 0.524 nM; with P985_AMBPA, 7.5 nM; in the assay with P546_AMBCA, 15 nM. For the same molecule, the Kd with P991_AMBCA is 1.4 nM; in the assay with P974_AMBCA it was 13.1 nM; with P1243_AMBAM [4], 5.05 nM; with P1182_AMBMA, 9.5 nM; with P1181_AMBMA it was 3.3 nM; in the assay with P1183_AMBTR, 110 nM. In the assay with P1243_AMBAM [5], this molecule showed a Kd of 5.04 nM. Further, the binding result in the assay with BK1.1FITC is recorded as “no binding (tested: 1 µM)”.
On to B4, for which the Kd with P1180_AMBTR was 4.4 nM; with P983_AMBCA, 81 nM; in the assay with P672_RHIPU, 5.5 nM; with P467_RHIPU, 4.13 nM; in the assay with P546_AMBCA, 28 nM; with P991_AMBCA, 0.43 nM. Moreover, the Kd was 49.1 nM in the assay with P974_AMBCA, 0.816 nM in the assay with P1243_AMBAM [4], 50 nM with P1182_AMBMA and 47 nM with P1181_AMBMA. Besides, in the assay with BK1.1FITC, the binding result is “no binding (tested: 1 µM)”.
Regarding B5, the “IC50, THP1 cell migration” value with CCL2_HUMAN amounted to 5.95 nM.
In the case of B6, the binding result with CXCL12_HUMAN, with CXCL9_HUMAN and with CXCL13_HUMAN was “no binding (tested: 300 nM)” in each case. The “RT” value with CXCL5_HUMAN [6] was 5.33 min; in the assay with CXCL2_HUMAN [7] it was 4.2 min; with CXCL1_HUMAN, 35.7 min; in the assay with CXCL8_HUMAN, 46.7 min; with CXCL3_HUMAN, 5.76 min; with CXCL6_HUMAN [8], 3.23 min.

The values are drawn from patent publication US20240034757A1 (OXFORD UNIVERSITY INNOVATION, published 2024).
